Assay results published in PMC10786891, “Massively parallel profiling of RNA-targeting CRISPR-Cas13d”.
Changes are numbered by the printed parent chain. In names and notes the source's numbering stands.

T1: EsCas13d, nuclease-dead (Eubacterium siraeum, UniProt B0MS50, R295A;H300A;R849A;H854A)
T1 sequence: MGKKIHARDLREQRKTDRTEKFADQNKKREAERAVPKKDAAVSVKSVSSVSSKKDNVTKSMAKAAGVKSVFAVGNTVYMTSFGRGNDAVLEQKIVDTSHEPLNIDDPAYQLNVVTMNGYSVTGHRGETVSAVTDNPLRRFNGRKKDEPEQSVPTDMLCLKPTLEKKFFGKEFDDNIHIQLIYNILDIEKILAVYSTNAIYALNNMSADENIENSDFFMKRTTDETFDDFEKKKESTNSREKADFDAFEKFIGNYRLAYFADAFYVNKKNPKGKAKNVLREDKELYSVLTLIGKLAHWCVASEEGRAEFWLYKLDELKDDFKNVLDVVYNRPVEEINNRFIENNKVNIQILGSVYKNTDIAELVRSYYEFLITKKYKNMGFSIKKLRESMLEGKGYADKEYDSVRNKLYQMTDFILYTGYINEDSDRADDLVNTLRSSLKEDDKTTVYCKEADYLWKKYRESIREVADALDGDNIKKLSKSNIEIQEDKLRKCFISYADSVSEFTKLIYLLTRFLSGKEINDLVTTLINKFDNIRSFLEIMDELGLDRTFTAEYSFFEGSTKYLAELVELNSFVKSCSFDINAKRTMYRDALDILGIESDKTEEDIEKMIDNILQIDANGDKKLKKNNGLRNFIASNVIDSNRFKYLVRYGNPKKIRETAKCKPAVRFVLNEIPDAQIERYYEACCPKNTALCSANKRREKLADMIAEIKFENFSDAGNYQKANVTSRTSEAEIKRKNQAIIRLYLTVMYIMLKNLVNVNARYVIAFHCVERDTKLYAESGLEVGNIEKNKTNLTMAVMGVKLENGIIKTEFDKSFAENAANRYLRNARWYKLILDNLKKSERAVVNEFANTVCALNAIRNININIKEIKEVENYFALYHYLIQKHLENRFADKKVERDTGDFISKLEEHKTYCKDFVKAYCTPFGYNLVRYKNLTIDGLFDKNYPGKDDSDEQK

B1: target 1 insC 3' of 20,insU 3' of 4 (mixed)
RNA 1: CACCCGUGCAAAAAUGCAGGGGUCUAAAACUGAGCGGAUAACCUCUCUAUGG
RNA 2: GGGAAUGGAUCCACAUCUACGAAUUCGUACCACUAGAGAGGUUAUCCGCUUCACCGAGAUCGGAAGAGCACACGU
B2: target 1 A1U,G5C (mixed)
RNA 1: B1 RNA 1
RNA 2: GGGAAUGGAUCCACAUCUACGAAUUCGUACCAUAGAGAGGUUAUCCCCUCUCCGAGAUCGGAAGAGCACACGU
B3: target 1 insU 3' of 21,insU 3' of 6 (mixed)
RNA 1: B1 RNA 1
RNA 2: B1 RNA 2 with A32U, C33A, G48U, C49G, U50C
B4: target 1 A9G,A20C (mixed)
RNA 1: B1 RNA 1
RNA 2: B2 RNA 2 with A32C, A43G, C47G, U51A
B5: target 1 C4U,G13C (mixed)
RNA 1: B1 RNA 1
RNA 2: B2 RNA 2 with G39C, C47G, C48U, U51A
B6: target 1 insG 3' of 16,insA 3' of 5 (mixed)
RNA 1: B1 RNA 1
RNA 2: B1 RNA 2 with C33U, U34A, A35G, G36A, A37G, C49A, U50C
B7: target 1 C7A,C21A (mixed)
RNA 1: B1 RNA 1
RNA 2: B2 RNA 2 with C31A, C45A, C47G, U51A
B8: target 1 insA 3' of 22,insC 3' of 8 (mixed)
RNA 1: B1 RNA 1
RNA 2: B1 RNA 2 with C31A, A32C, C33A, G48C, C49G, U50C
B9: target 1 insC 3' of 3,insG 3' of 2 (mixed)
RNA 1: B1 RNA 1
RNA 2: GGGAAUGGAUCCACAUCUACGAAUUCGUACCAUAGAGAGGUUAUCCGCUCCGACCGAGAUCGGAAGAGCACACGU
B10: target 1 C2U,C7U (mixed)
RNA 1: B1 RNA 1
RNA 2: B2 RNA 2 with C45U, C47G, C50U, U51A
B11: target 1 insA 3' of 21,insU 3' of 12 (mixed)
RNA 1: B1 RNA 1
RNA 2: B1 RNA 2 with C33A, A44U, U45A, C46U, G48C, C49G, U50C
B12: target 1 C2G,G5U (mixed)
RNA 1: B1 RNA 1
RNA 2: B2 RNA 2 with C47U, C50G, U51A
B13: target 1 U3A,G17C (mixed)
RNA 1: B1 RNA 1
RNA 2: B2 RNA 2 with G35C, C47G, U49A, U51A
B14: target 1 A9C,A14G (mixed)
RNA 1: B1 RNA 1
RNA 2: B2 RNA 2 with A38G, A43C, C47G, U51A
B15: target 1 U19A,C21A (mixed)
RNA 1: B1 RNA 1
RNA 2: B2 RNA 2 with C31A, U33A, C47G, U51A
B16: target 1 G5C (mixed)
RNA 1: B1 RNA 1
RNA 2: B2 RNA 2 with U51A
B17: target 1 insA 3' of 21,insU 3' of 2 (mixed)
RNA 1: B1 RNA 1
RNA 2: B1 RNA 2 with C33A, U51C, C52U
B18: target 1 G12U,G13A (mixed)
RNA 1: B1 RNA 1
RNA 2: B2 RNA 2 with G39A, G40U, C47G, U51A
B19: target 1 C7U,A9G (mixed)
RNA 1: B1 RNA 1
RNA 2: B2 RNA 2 with A43G, C45U, C47G, U51A
B20: target 1 U8G,G12A (mixed)
RNA 1: B1 RNA 1
RNA 2: B2 RNA 2 with G40A, U44G, C47G, U51A
B21: target 1 U19C,C21A (mixed)
RNA 1: B1 RNA 1
RNA 2: B2 RNA 2 with C31A, U33C, C47G, U51A
B22: target 1 C7A,A14C (mixed)
RNA 1: B1 RNA 1
RNA 2: B2 RNA 2 with A38C, C45A, C47G, U51A
B23: target 1 insU 3' of 7,insG 3' of 6 (mixed)
RNA 1: B1 RNA 1
RNA 2: B9 RNA 2 with C46U, G47C, C48G, U49G, C51U, G52C
B24: target 1 complement block 3-7 (mixed)
RNA 1: B1 RNA 1
RNA 2: B2 RNA 2 with C45G, C46G, C48G, U49A, U51A
B25: target 1 A1G,G5C (mixed)
RNA 1: B1 RNA 1
RNA 2: B2 RNA 2 with U51G
B26: target 1 insC 3' of 17,insA 3' of 6 (mixed)
RNA 1: B1 RNA 1
RNA 2: B1 RNA 2 with C33U, U34A, A35G, G36C, G48A, C49G, U50C
B27: target 1 insC 3' of 12,insA 3' of 12 (mixed)
RNA 1: B1 RNA 1
RNA 2: B9 RNA 2 with U41C, U42A, A43U, C45A, C46U, G47C, U49G, C51U, G52C
B28: target 1 A1C,G5C (mixed)
RNA 1: B1 RNA 1
RNA 2: B2 RNA 2 with U51C
B29: target 1 G12U,A20C (mixed)
RNA 1: B1 RNA 1
RNA 2: B2 RNA 2 with A32C, G40U, C47G, U51A
B30: target 1 C4G,C22U (mixed)
RNA 1: B1 RNA 1
RNA 2: B2 RNA 2 with C30U, C47G, C48G, U51A
B31: target 1 A9G,A14G (mixed)
RNA 1: B1 RNA 1
RNA 2: B2 RNA 2 with A38G, A43G, C47G, U51A
B32: target 1 complement block 1-6 (mixed)
RNA 1: B1 RNA 1
RNA 2: B2 RNA 2 with C46G, C48G, U49A, C50G
B33: target 1 U3A,C21A (mixed)
RNA 1: B1 RNA 1
RNA 2: B2 RNA 2 with C31A, C47G, U49A, U51A
B34: target 1 insG 3' of 22,insG 3' of 8 (mixed)
RNA 1: B1 RNA 1
RNA 2: B1 RNA 2 with C31G, A32C, C33A, C46G, G48C, C49G, U50C
B35: target 1 A1U,A14C (mixed)
RNA 1: B1 RNA 1
RNA 2: B2 RNA 2 with A38C, C47G
B36: target 1 complement block 4-7 (mixed)
RNA 1: B1 RNA 1
RNA 2: B2 RNA 2 with C45G, C46G, C48G, U51A

Target: T1, EsCas13d, nuclease-dead
Assay: crRNA (strand 1, pre-loaded); Mg2+; 40 mM Tris-HCl pH 7.5, 150 mM NaCl, 6 mM MgCl2, 1 mM DTT, 0.1% Tween-20, 0.2 mg/ml BSA; 25 C; 10 min per concentration, then washed
Conditions: tags: His6-TwinStrep-SUMO cleaved; N-terminal SNAP kept (SNAP-Surface 488); label: 3' end held by stalled T7 RNA polymerase

Point of comparison: B36, Kd 12.6 ± 0.8 nM. Against it:
- B1 — within 1.5-fold, 9.1 ± 0.5 nM
- B2 — within 1.5-fold, 8.9 ± 0.5 nM
- B3 — 2.5-fold higher, 31.4 ± 1.6 nM
- B4 — 4.3-fold higher, 54 ± 15 nM
- B5 — 4-fold higher, 50 ± 10 nM
- B6 — 1.9-fold higher, 23.5 ± 1.5 nM
- B7 — 2.9-fold higher, 36 ± 4 nM
- B8 — 1.8-fold higher, 22.3 ± 2 nM
- B9 — within error, 11.6 ± 0.7 nM
- B10 — 1.9-fold lower, 6.5 ± 0.27 nM
- B11 — within 1.5-fold, 16.4 ± 0.8 nM
- B12 — 1.8-fold higher, 22.1 ± 1.4 nM
- B13 — 3.5-fold higher, 44 ± 4 nM
- B14 — 2.3-fold higher, 29.5 ± 2.4 nM
- B15 — 3.7-fold higher, 46 ± 5 nM
- B16 — within 1.5-fold, 9.6 ± 0.4 nM
- B17 — within 1.5-fold, 17.9 ± 1 nM
- B18 — 3.2-fold lower, 3.99 ± 0.22 nM
- B19 — within 1.5-fold, 15.7 ± 1.1 nM
- B20 — within error, 12.9 ± 1.4 nM
- B21 — 2.9-fold higher, 37 ± 5 nM
- B22 — 2.7-fold higher, 34 ± 4 nM
- B23 — within 1.5-fold, 16.7 ± 1.3 nM
- B24 — within error, 12.9 ± 0.8 nM
- B25 — within 1.5-fold, 10 ± 0.5 nM
- B26 — 3.5-fold higher, 44 ± 5 nM
- B27 — within error, 14.7 ± 1.5 nM
- B28 — within 1.5-fold, 9 ± 0.7 nM
- B29 — 5.9-fold higher, 74 ± 32 nM
- B30 — within error, 10 ± 2 nM
- B31 — within 1.5-fold, 14.4 ± 0.7 nM
- B32 — 2.1-fold lower, 6.14 ± 0.25 nM
- B33 — 7.1-fold higher, ~90 nM
- B34 — 5.4-fold higher, 68 ± 7 nM
- B35 — 3.6-fold higher, 45 ± 6 nM
